Laboratory results taken from patent US20140128287.

Target: GEV (Gal4 DBD - estrogen receptor - VP16) (synthetic construct) (UniProt P04386)
Assay: cell_activity
Conditions: yeast reporter with three pairs of GEV sites, 15 min after beta-estradiol

GEV (Gal4 DBD - estrogen receptor - VP16) (synthetic construct), sequence (P04386 1-93): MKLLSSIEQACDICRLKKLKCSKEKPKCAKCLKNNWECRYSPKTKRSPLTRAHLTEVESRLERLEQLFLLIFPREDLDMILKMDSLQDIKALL

## CGGNNNNNNNNNNNCCG (double strand) [GAL1 promoter UASgal (Gal4 consensus site)]
  activity (fold induction of GFP transcripts): > 50
